IntAct's records for PubMed 23105096

B1: Ras-related protein Rab-26 (Homo sapiens), Q9ULW5 (parent)
chain: MSRKKTPKSKGASTPAASTLPTANGARPARSGTALSGPDAPPNGPLQPGRPSLGGGVDFYDVAFKVMLVGDSGVGKTCLLVRFKDGAFLAGTFISTVGIDFRNKVLDVDGVKVKLQMWDTAGQERFRSVTHAYYRDAHALLLLYDVTNKASFDNIQAWLTEIHEYAQHDVALMLLGNKVDSAHERVVKREDGEKLAKEYGLPFMETSAKTGLNVDLAFTAIAKELKQRSMKAPSEPRFRLHDYVKREGRGASCCRP

Variants of: B1
Conditions: with ada2b_human ADRA2B

| Variant | effect of a mutation on the interaction |
| --- | --- |
| N177I | decreasing interaction strength |
| T77N | decreasing interaction strength |

Variants of: B1
Conditions: with ada2b_human ADRA2B
Remark: another data set of the same source

| Variant | effect of a mutation on the interaction |
| --- | --- |
| N177I | disrupting interaction strength |
